Assay [1] has as its target T1, recombinant human CD64 expressed on the surface of CHO cells (human, UniProt P12314 16-374).
T1 construct: whole, on cells; also called huCD64
Nature of the assay: flow cytometry, receptor-expressing CHO cells. On the procedure: (§1) The CHO cells were incubated with serial dilutions of the indicated trispecific constructs and control constructs at 37° C., and cell surface bound antibodies were detected by FITC-conjugated goat anti-human IgG Fc and flow cytometric analysis. Measured median fluorescence intensity values were used to calculate apparent affinities (KD) by non-linear regression.
On the technique in general: A flow cytometer gives signals particle by particle.

Assay [2] addresses T2, recombinant human CD32A expressed on the surface of CHO cells (human, UniProt P12318 34-317).
T2 construct: whole, on cells; also called huCD32A
T2 sequence (looked up): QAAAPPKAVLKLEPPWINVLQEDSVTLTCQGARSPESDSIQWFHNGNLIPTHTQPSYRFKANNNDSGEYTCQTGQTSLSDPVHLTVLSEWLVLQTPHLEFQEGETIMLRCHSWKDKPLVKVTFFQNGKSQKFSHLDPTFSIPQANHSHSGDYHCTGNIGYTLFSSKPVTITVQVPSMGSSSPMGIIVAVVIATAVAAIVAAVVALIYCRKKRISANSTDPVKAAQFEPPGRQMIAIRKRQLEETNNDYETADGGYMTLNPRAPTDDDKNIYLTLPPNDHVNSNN
Put plainly: flow cytometry, CHO-huCD32A cells, apparent KD; SD n.a. The procedure:
as §1

The target in assay [3] is T2, recombinant human CD32A expressed on …. Put plainly: flow cytometry, CHO-huCD32A cells, apparent KD; SD 719.6. The procedure: as §1
The target in assay [4] is T1, recombinant human CD64 expressed on the …. Put plainly: flow cytometry, CHO-huCD64 cells, apparent KD; SD 13.7. The procedure: as §1
For assay [5] the target is unchanged. Nature of the assay: flow cytometry, CHO-huCD64 cells, apparent KD; SD 7.0. On the procedure:
as §1

The target of assay [6] is T3, recombinant human NKp46 expressed on the surface of CHO cells (human, UniProt O76036 22-304).
T3 construct: whole, on cells; also called huNKp46; CD355
T3 sequence (O76036 22-304): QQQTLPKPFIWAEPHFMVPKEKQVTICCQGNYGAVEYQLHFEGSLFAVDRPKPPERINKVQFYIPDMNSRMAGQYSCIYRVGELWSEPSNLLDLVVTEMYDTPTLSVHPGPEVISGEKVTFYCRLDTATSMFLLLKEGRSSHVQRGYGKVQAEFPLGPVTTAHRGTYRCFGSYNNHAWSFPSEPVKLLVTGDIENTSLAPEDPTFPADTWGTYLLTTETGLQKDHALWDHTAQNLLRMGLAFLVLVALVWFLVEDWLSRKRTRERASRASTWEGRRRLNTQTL
Put plainly: flow cytometry, CHO-huNKp46 cells, apparent KD; SD 6.2. On the procedure: as §1

For assay [7], the target named is T2, recombinant human CD32A expressed on …. Nature of the assay: flow cytometry, CHO-huCD32A cells, apparent KD; SD 118.9. The procedure: as §1
For assay [8], the target named is T1, recombinant human CD64 expressed on the …. Put plainly: flow cytometry, CHO-huCD64 cells, apparent KD; SD 8.7. The procedure:
as §1

For assay [9] the target is unchanged. Put plainly: flow cytometry, CHO-huCD64 cells, apparent KD; SD 3.4. On the procedure:
as §1

The target of assay [10] is T2, recombinant human CD32A expressed on …. Nature of the assay: flow cytometry, CHO-huCD32A cells, apparent KD; SD 236.8. On the procedure:
as §1

Substitutions are numbered along the chain they refer to.

T1 sequence (P12314 16-374): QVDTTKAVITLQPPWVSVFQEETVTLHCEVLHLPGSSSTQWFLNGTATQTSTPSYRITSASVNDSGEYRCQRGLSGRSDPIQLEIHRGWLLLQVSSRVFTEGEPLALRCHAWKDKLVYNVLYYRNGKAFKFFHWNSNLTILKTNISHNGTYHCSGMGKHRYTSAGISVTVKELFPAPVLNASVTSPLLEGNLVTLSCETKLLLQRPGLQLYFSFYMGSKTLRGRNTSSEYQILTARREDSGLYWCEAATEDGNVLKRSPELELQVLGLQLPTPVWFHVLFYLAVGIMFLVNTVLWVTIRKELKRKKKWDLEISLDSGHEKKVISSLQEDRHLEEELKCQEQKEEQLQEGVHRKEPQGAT

B1: 2Fab-1scFv-AFc-1 (bispecific antibody, human IgG1, kappa)
heavy: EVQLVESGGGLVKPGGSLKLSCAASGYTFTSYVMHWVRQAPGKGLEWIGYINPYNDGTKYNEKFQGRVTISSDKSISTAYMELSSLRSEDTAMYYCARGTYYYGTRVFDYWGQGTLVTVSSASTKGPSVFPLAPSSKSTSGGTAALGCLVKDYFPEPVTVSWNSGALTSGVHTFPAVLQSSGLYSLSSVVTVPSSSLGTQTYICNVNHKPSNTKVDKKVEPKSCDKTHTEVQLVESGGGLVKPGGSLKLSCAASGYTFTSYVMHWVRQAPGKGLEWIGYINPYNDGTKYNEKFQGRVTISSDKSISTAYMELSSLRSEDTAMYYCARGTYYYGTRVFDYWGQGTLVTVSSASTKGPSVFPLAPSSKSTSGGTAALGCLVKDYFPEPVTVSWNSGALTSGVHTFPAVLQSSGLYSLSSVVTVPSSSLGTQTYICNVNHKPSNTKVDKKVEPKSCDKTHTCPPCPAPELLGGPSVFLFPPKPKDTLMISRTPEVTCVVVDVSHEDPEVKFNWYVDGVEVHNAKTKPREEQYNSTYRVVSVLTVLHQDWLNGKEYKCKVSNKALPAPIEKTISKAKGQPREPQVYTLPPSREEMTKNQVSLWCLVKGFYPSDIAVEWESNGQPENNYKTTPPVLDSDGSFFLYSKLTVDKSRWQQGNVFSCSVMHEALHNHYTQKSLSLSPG
light: DIVMTQSPATLSLSPGERATLSCRSSKSLQNVNGNTYLYWFQQKPGQSPQLLIYRMSNLNSGVPDRFSGSGSGTEFTLTISSLEPEDFAVYYCMQHLEYPITFGAGTKLEIKRTVAAPSVFIFPPSDEQLKSGTASVVCLLNNFYPREAKVQWKVDNALQSGNSQESVTEQDSKDSTYSLSSTLTLSKADYEKHKVYACEVTHQGLSSPVTKSFNRGEC
chain: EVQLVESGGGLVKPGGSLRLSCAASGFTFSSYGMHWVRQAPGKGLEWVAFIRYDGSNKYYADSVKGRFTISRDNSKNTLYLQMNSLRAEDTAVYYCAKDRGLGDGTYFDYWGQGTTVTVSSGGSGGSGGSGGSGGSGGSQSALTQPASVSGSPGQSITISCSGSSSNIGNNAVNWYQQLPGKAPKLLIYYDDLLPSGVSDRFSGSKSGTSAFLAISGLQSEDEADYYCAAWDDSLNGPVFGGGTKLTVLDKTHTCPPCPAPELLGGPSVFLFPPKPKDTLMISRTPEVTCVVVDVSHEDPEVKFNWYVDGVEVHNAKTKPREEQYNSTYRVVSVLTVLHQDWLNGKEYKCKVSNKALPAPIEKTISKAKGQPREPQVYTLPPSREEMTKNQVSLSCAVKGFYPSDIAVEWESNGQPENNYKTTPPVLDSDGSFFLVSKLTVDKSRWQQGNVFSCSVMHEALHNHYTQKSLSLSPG
notes: CD19, wt Fc, NKG2D(KYK-2.0)
Turning to B1, in assay [1], the binding result was “binds”.

B2: 2Fab-1scFv-AFc-4 (bispecific antibody, human IgG1, kappa)
heavy: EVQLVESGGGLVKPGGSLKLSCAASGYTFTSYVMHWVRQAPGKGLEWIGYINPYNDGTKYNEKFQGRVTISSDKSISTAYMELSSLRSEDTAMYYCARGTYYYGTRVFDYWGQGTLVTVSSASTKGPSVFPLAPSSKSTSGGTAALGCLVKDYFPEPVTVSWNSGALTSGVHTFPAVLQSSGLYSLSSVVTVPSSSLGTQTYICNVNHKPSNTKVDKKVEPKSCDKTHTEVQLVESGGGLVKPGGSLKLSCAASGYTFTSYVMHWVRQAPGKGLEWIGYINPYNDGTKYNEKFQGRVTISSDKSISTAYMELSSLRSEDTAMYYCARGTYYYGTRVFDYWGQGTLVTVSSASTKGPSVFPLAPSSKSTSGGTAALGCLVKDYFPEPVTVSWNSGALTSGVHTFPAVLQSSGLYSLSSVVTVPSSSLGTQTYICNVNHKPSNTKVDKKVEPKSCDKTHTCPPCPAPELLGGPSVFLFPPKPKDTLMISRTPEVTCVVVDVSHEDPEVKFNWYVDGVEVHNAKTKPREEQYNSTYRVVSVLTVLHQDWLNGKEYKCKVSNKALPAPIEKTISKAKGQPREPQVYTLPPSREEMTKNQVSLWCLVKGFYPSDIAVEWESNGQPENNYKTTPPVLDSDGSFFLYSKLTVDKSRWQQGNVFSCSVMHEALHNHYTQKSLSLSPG
light: B1 light
chain: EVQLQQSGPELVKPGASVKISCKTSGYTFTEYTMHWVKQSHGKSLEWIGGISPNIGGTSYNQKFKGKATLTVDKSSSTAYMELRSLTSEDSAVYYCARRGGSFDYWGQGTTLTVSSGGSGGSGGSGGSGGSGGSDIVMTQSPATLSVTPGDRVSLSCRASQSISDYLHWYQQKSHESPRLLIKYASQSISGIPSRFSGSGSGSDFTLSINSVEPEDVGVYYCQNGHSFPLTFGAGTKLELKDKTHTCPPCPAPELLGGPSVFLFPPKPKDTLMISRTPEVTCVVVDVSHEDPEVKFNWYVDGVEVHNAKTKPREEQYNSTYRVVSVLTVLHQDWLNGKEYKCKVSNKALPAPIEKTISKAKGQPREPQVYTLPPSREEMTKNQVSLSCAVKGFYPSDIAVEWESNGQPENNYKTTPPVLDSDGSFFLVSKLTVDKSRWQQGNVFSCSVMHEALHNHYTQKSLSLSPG
notes: CD19, wt Fc, NKp46(NKp46-3)
On to B2, for which the binding result in [1] was “binds”.

B3: IG-scDb-1 (other)
heavy: EVQLVESGGGLVKPGGSLKLSCAASGYTFTSYVMHWVRQAPGKGLEWIGYINPYNDGTKYNEKFQGRVTISSDKSISTAYMELSSLRSEDTAMYYCARGTYYYGTRVFDYWGQGTLVTVSSASTKGPSVFPLAPSSKSTSGGTAALGCLVKDYFPEPVTVSWNSGALTSGVHTFPAVLQSSGLYSLSSVVTVPSSSLGTQTYICNVNHKPSNTKVDKKVEPKSCDKTHTCPPCPAPEFEGGPSVFLFPPKPKDTLMISRTPEVTCVVVAVSHEDPEVKFNWYVDGVEVHNAKTKPREEQYGSTYRVVSVLTVLHQDWLNGKEYKCKVSNKALPAPIEKTISKAKGQPREPQVYTLPPSREEMTKNQVSLTCLVKGFYPSDIAVEWESNGQPENNYKTTPPVLDSDGSFFLYSKLTVDKSRWQQGNVFSCSVMHEALHNHYTQKSLSLSPGGGGGSGGGGSSYELTQPLSVSVALGQTARITCGGHNIGSKNVHWYQQKPGQAPVLVIYQDNKRPSGIPERFSGSNSGNTATLTISRAQAGDEADYYCQVWDNYNVLFGCGTKLTVLGGSGGSQVQLVESGGGLVKPGGSLRLSCAASGFTFSSYGMHWVRQAPGKGLEWVAFIRYDGSNKYYADSVKGRFTISRDNSKNTLYLQMNSLRAEDTAVYYCAKDRGLGDGTYFDYWGQGTTVTVSSGGSGGSGGSGGSGGSGGSQSALTQPASVSGSPGQSITISCSGSSSNIGNNAVNWYQQLPGKAPKLLIYYDDLLPSGVSDRFSGSKSGTSAFLAISGLQSEDEADYYCAAWDDSLNGPVFGGGTKLTVLGGSGGSQVQLVQSGAEVKKPGASVKVSCKASGYTFTSYYMHWVRQAPGQCLEWMGAIEPTYGSTSYAQKFQGRVTMTRDTSTSTVYMELSSLRSEDTAVYYCARGSAYYYDFADYWGQGTLVTVSS
light: B1 light
notes: trispecific construct: target CD19, effector domains CD16A(P2C47var50) and NKG2D(KYK-2.0)
With B3, the Kd in assay [2] came to 4090 nM.

B4: 2Fab-1scFv-AFc-2 (bispecific antibody, human IgG1, kappa)
heavy: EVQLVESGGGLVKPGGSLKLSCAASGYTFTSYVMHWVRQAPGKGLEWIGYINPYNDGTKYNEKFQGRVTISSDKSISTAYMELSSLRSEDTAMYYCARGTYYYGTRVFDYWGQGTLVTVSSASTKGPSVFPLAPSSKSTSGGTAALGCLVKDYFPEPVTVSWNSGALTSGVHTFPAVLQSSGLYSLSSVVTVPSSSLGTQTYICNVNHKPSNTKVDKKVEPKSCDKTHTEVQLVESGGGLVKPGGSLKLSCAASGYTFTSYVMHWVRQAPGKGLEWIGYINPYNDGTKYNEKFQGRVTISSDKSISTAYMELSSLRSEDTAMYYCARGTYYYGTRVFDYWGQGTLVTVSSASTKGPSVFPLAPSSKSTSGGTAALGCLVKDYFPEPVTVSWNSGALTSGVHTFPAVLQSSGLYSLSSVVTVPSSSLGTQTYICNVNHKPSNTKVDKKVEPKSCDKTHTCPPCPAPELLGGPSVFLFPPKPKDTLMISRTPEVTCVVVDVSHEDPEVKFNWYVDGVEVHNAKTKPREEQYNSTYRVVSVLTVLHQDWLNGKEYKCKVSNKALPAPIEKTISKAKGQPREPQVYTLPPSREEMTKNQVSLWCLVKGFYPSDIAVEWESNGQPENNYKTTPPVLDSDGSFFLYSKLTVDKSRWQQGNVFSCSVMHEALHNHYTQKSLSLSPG
light: B1 light
chain: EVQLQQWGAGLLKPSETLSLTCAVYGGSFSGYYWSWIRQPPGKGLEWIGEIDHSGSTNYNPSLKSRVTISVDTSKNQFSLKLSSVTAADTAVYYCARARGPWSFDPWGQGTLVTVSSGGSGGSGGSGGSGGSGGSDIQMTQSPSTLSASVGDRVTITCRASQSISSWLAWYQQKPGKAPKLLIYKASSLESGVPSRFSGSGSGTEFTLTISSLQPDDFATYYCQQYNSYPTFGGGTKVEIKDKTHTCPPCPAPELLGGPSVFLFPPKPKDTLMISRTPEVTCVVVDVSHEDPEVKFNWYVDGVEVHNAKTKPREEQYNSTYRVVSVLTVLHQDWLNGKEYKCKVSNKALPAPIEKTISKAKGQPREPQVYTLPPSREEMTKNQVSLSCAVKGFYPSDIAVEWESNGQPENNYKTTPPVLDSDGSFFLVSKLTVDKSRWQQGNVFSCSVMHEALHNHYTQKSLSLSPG
notes: CD19, wt Fc, NKG2D(ADI-27743)
Consider B4, for which the binding result in assay [1] is reported as “binds”.

B5: 2Fab-1scFv-AFc-3 (bispecific antibody, human IgG1, kappa)
heavy: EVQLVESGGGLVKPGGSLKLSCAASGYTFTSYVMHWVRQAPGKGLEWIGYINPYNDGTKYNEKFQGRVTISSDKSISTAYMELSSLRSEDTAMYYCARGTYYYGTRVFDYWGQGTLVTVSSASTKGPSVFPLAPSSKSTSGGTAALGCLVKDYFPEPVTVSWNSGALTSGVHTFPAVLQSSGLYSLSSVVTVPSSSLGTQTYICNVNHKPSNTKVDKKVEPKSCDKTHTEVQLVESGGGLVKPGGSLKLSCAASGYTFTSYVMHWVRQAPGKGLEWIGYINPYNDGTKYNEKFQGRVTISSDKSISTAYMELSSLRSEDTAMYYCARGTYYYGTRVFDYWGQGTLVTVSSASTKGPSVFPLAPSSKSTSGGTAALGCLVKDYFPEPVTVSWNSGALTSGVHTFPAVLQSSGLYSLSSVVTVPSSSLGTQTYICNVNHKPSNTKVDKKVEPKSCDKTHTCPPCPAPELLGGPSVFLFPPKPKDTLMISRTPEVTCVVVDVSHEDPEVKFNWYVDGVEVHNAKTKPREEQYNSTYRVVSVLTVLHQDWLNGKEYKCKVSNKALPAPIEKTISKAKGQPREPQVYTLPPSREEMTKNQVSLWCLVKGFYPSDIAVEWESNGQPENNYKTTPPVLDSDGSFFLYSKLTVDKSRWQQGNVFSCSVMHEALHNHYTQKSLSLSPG
light: B1 light
chain: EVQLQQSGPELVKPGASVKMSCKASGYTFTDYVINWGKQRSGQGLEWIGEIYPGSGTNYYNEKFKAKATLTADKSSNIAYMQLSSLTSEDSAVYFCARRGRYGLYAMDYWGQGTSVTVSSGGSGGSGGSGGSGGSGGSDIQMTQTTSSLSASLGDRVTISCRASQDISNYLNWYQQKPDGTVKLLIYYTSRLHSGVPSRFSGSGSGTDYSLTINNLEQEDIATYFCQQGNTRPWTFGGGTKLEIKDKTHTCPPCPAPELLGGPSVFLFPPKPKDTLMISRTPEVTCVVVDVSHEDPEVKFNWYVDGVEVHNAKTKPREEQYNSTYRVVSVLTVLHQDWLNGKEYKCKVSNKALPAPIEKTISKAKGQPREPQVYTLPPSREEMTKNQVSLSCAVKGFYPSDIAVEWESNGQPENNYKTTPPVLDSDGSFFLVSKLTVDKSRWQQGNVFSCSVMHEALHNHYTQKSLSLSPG
notes: CD19, wt Fc, NKp46(NKp46-1)
As for B5, the Kd was determined as 682 nM in assay [3] and 38.1 nM in assay [4].

B6: 1Fab-AFc-1Fab-2 (bispecific antibody, human IgG1, kappa)
chain 1: not shown
chain 2: EVQLVESGGGLVKPGGSLKLSCAASGYTFTSYVMHWVRQAPGKGLEWIGYINPYNDGTKYNEKFQGRVTISSDKSISTAYMELSSLRSEDTAMYYCARGTYYYGTRVFDYWGQGTLVTVSSASTKGPSVFPLAPSSKSTSGGTAALGCLVKDYFPEPVTVSWNSGALTSGVHTFPAVLQSSGLYSLSSVVTVPSSSLGTQTYICNVNHKPSNTKVDKKVEPKSCDKTHTCPPCPAPELLGGPSVFLFPPKPKDTLMISRTPEVTCVVVDVSHEDPEVKFNWYVDGVEVHNAKTKPREEQYNSTYRVVSVLTVLHQDWLNGKEYKCKVSNKALPAPIEKTISKAKGQPREPQVYTLPPSREEMTKNQVSLSCAVKGFYPSDIAVEWESNGQPENNYKTTPPVLDSDGSFFLVSKLTVDKSRWQQGNVFSCSVMHEALHNHYTQKSLSLSPGSTGSEVQLQQSGPELVKPGASVKISCKTSGYTFTEYTMHWVKQSHGKSLEWIGGISPNIGGTSYNQKFKGKATLTVDKSSSTAYMELRSLTSEDSAVYYCARRGGSFDYWGQGTTLTVSSRTVAAPSVFIFPPSDEQLKSGTASVVCLLNNFYPREAKVQWKVDNALQSGNSQESVTEQDSKDSTYSLSSTLTLSKADYEKHKVYACEVTHQGLSSPVTKSFNRGEC
chain 3: DIVMTQSPATLSVTPGDRVSLSCRASQSISDYLHWYQQKSHESPRLLIKYASQSISGIPSRFSGSGSGSDFTLSINSVEPEDVGVYYCQNGHSFPLTFGAGTKLELKASTKGPSVFPLAPSSKSTSGGTAALGCLVKDYFPEPVTVSWNSGALTSGVHTFPAVLQSSGLYSLSSVVTVPSSSLGTQTYICNVNHKPSNTKVDKKVEPKSCDKTH
notes: CD19, wt Fc, NKp46(NKp46-3); also called ComparatorA_2
With B6, the Kd in [5] is 23.9 nM; in assay [6] it was 48 nM; in [2] it was 1150 nM.

B7: 1Fab-AFc-1Fab-1 (bispecific antibody, human IgG1, kappa)
chain 1: not shown
chain 2: EVQLVESGGGLVKPGGSLKLSCAASGYTFTSYVMHWVRQAPGKGLEWIGYINPYNDGTKYNEKFQGRVTISSDKSISTAYMELSSLRSEDTAMYYCARGTYYYGTRVFDYWGQGTLVTVSSASTKGPSVFPLAPSSKSTSGGTAALGCLVKDYFPEPVTVSWNSGALTSGVHTFPAVLQSSGLYSLSSVVTVPSSSLGTQTYICNVNHKPSNTKVDKKVEPKSCDKTHTCPPCPAPELLGGPSVFLFPPKPKDTLMISRTPEVTCVVVDVSHEDPEVKFNWYVDGVEVHNAKTKPREEQYNSTYRVVSVLTVLHQDWLNGKEYKCKVSNKALPAPIEKTISKAKGQPREPQVYTLPPSREEMTKNQVSLSCAVKGFYPSDIAVEWESNGQPENNYKTTPPVLDSDGSFFLVSKLTVDKSRWQQGNVFSCSVMHEALHNHYTQKSLSLSPGSTGSQVQLQQSGPELVKPGASVKMSCKASGYTFTDYVINWGKQRSGQGLEWIGEIYPGSGTNYYNEKFKAKATLTADKSSNIAYMQLSSLTSEDSAVYFCARRGRYGLYAMDYWGQGTSVTVSSRTVAAPSVFIFPPSDEQLKSGTASVVCLLNNFYPREAKVQWKVDNALQSGNSQESVTEQDSKDSTYSLSSTLTLSKADYEKHKVYACEVTHQGLSSPVTKSFNRGEC
chain 3: DIQMTQTTSSLSASLGDRVTISCRASQDISNYLNWYQQKPDGTVKLLIYYTSRLHSGVPSRFSGSGSGTDYSLTINNLEQEDIATYFCQQGNTRPWTFGGGTKLEIKASTKGPSVFPLAPSSKSTSGGTAALGCLVKDYFPEPVTVSWNSGALTSGVHTFPAVLQSSGLYSLSSVVTVPSSSLGTQTYICNVNHKPSNTKVDKKVEPKSCDKTH
notes: CD19, wt Fc, NKp46(NKp46-1); also called ComparatorA_1
Regarding B7, the Kd was found to be 286 nM in assay [7] and 22.7 nM in assay [8].

B8: 1Fab-AFc-1Fab-5 (bispecific antibody, human IgG1, kappa)
chain 1: DIVMTQSPATLSLSPGERATLSCRSSKSLQNVNGNTYLYWFQQKPGQSPQLLIYRMSNLNSGVPDRFSGSGSGTEFTLTISSLEPEDFAVYYCMQHLEYPITFGAGTKLEIKRTVAAPSVFIFPPSDEQLKSGTASVVCLLNNFYPREAKVQWKVDNALQSGNSQESVTEQDSKDSTYSLSSTLTLSKADYEKHKVYACEVTHQGLSSPVTKSFNRGECDKTHTCPPCPAPELLGGPDVFLFPPKPKDTLMISRTPEVTCVVVDVSHEDPEVKFNWYVDGVEVHNAKTKPREEQYNSTYRVVSVLTVLHQDWLNGKEYKCKVSNKALPAPEEKTISKAKGQPREPQVYTLPPSREEMTKNQVSLWCLVKGFYPSDIAVEWESNGQPENNYKTTPPVLDSDGSFFLYSKLTVDKSRWQQGNVFSCSVMHEALHNHYTQKSLSLSPGK
chain 2: B7 chain 2 with S243D, I336E
chain 3: B7 chain 3
notes: CD19, Fc-enhanced Fc, NKp46(NKp46-1); also called ComparatorA_5
On to B8, for which the Kd is 15.9 nM in [9] and 1050 nM in assay [10].

These data come from patent US20230365709A1 (published 2023).
